# Measurements reported in patent US7115556B2, “Use of anti-prolactin agents to treat proliferative conditions” (Greenville Hospital System, priority 1998, dated 2006).
# T1: hPRLR (Homo sapiens, UniProt P16471)
# T1 sequence (P16471 25-622): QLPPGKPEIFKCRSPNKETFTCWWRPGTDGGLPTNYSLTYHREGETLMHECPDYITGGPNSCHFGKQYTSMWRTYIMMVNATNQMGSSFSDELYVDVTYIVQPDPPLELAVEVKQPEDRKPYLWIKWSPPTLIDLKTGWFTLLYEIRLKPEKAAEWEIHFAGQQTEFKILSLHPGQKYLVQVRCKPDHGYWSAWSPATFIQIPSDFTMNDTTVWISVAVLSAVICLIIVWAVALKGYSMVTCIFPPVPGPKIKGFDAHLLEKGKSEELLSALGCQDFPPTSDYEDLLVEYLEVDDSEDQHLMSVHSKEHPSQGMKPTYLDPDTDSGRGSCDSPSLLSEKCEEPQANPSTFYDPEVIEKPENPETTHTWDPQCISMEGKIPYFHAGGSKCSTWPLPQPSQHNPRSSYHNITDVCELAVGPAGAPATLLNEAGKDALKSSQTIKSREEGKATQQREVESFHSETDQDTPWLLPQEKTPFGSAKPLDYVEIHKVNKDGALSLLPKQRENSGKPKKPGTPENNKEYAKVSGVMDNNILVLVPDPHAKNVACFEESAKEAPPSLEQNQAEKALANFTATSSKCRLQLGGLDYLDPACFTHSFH
# Columns and labels:
# T47-D cells = assay: Co-culture with L-G129R cells, T47-D; format: cell-based, human; details: T47-D co-cultured with L-G129R cells
# Text: The co-culture experimental set-up provides a sustained presence of biologically active hPRL-G129R, thereby resulting in a maximal response in these tumor cells.
# [1] = tested on: T47D human breast cancer cells; assay: Mixed cell culture assay with transfected L cells, T47D; format: cell-based
# Text: For certain experiments, a mixed cell culture assay was used, diagramatically represented in FIG. 6. In this assay, breast cancer cells were co-cultured with expressor cells which had been transfected with nucleic acid encoding PRL or a PRL variant and expressing those recombinant proteins. By varying the number of expressor cells, the amount of PRL or PRL variant present in the mixed cell culture was increased or decreased. […] In certain wells, which served as a control, no expresser cells were added. Then, increasing numbers of expresser cells (transfected L cells expressing either HPRL (L-PRL) or hPRLA (L-PRLA)) were added to breast cancer cell-containing wells to create mixed cultures. The same numbers of expressor cells were cultured in parallel (without T47D cells) to serve as controls. After culturing under standard conditions for a period of time, the number of cells present in the wells was counted, and the number of L cells in the corresponding control culture was subtracted. The resulting number could then be compared to the number of T47D cells in the T47D control culture to evaluate the effects of the recombinant product on breast cancer cell proliferation.
# [2] = tested on: tyrosine phosphorylation of STAT5 protein in T-47D human breast cancer cells; assay: hPRL induction of tyrosine phosphorylation of STAT5 protein (Example 8); format: cell-based
# Text: Assay of hPRL induction of tyrosine phosphorylation of STAT5 protein. […] Tyrosyl phosphorylation of STAT 5 is a receptor mediated event and is thought to be an important step in ligand-induced signal transduction (Wakao et al., 1994, EMBO J. 13: 2182–2191; Kazansky et al., 1995, Mol. Endocrinol. 9:1598–1609; Waxman et al., 1995, J. Biol. Chem. 270:13262–13270). This assay was used to evaluate the ability of hPRL and hPRLA to inhibit induction of STAT 5 phosphorylation by wild type PRL.
# Briefly, human breast cancer cells were plated in 12-well plates. After pre-incubation in serum-free DMEM for 2–3 hours, the cells were exposed to various concentration of hPRL and hPRLA in serum-free DMEM. The cells were incubated for 15 min at 37° C., washed once with PBS, and lysed in 300 μl lysis buffer (50 mM Tris-HCl, pH 6.8, 1% SDS, 1% β-mecaptoethanol, 0.1M DTT, 5% Sucrose, 100 uM Sodium Orthovanadate, and 0.6% bromphenol blue). Thirty microliters of cell lysates were subjected to 4–12.5% SDS-PAGE and immunoblot analysis using horse radish peroxidase (HRP)-conjugated anti-phosphotyrosine antibody PY20 and ECL reagent kit (Amersham, Ill.). Blots were then exposed to X-ray films and developed using standard procedures (Kodak, Rochester, N.Y.). This assay has been described in Chen et al., 1994, J. Biol. Chem. 269: 15892–15897; Chen et al., 1995, Endocrinol. 136:660–667; Wang et al., 1994, Proc. Natl. Acad. Sci. U.S.A. 91:1391–1395; Chen et al., 1995, Mol. Endocrinol. 9(3):292–302; Harding et al., 1996, J. Biol. Chem. 271(12):6708–6712.
# prostate cancer cells = assay: TUNEL assay, prostate cancer cells; format: cell-based, human; details: 250 ng hPRL-G129R, 24 hours
# Procedure: (§1) Terminal deoxynucleotidly transferase mediated dUTP nick end labeling (TUNEL) assay. Nicks of the fragmented DNA are labeled at their 3-OH ends. The fluorescein-labeled dUTP is incorporated at the 3-OH ends by using the enzyme terminal deoxynucleotidyl transferase. After the assigned period of treatment the chambers were dismantled as per the manufacturer's instructions and the TUNEL assay (Apoptosis detection system, Fluorescein- Promega) was performed as per the manufacturer's instructions. The slide was examined under a FITC filter using an Olympus IX 70 microscope system.
# The samples were in duplicate and each sample constituted about 2 million cells
# hPRLR = molecular target: T1, hPRLR; details: Goffin et al., 1996; cited from earlier work
# BT-474 cells = assay: TUNEL assay, BT-474; format: cell-based, human
# Procedure: Cell Culture. T-47D cells obtained from ATCC were grown in RPMI 1640 (phenol red free), supplemented with 10% FBS (GIBCO BRL). BT-474 cells were grown in RPMI 1640 medium (phenol red free) supplemented with 10% FBS and ATCC recommended supplements. MCF-7 cells were grown in DMEM medium (phenol red free), supplemented with 10% FBS. The cells were grown at 37° C. in a humid atmosphere in the presence of 5% CO2. The MDA-MB-134 cells were grown in Leibovitz's L-15 medium supplemented with 20% FBS and grown in CO2 free atmosphere. The breast cancer cells were trypsinized (0.02% Trypsin—EDTA) and grown in their respective media (phenol red free) supplemented with 10% CSS (Charcoal stripped serum) for a week. Subsequently the cells were trypsinized again and plated onto an 8 chambered slide system (Lab Tek II) at a confluence of 60–70% per chamber. The next day treatments were performed on the breast cancer cells using their respective media(phenol red free), supplemented with 1% CSS. The MDA-MB-134 VI cells were grown in phenol red containing medium, but with the same serum conditions as the other breast cancer cells.
# as §1
molecule,measurement,setting,value
hPRL-G129R: variant of human prolactin having a substitution of the glycine at position 129 with an arginine residue; prolactin receptor antagonist (protein) LPICPGGAARCQVTLRDLFDRAVVLSHYIHNLSSEMFSEFDKRYTHGRGFITKAINSCHTSSLATPEDKEQAQQMNQKDFLSLIVSILRSWNEPLYHLVTEVRGMQEAPEAILSKAVEIEEQTKRLLERMELIVSQVHPETKENEIYPVWSGLPSLQMADEESRLSAYYNLLHCLRRDSHKIDNYLKLLKCRIIHNNNC,inhibition of cell proliferation in co-culture,T47-D cells,Complete inhibition
same,effect on proliferation in mixed cell culture,"[1]; T47D, three days, effect greater than on MCF-7",inhibitory effect
same,inhibition of T47D proliferation,"[1]; co-culture with L cells expressing hPRLA, 24 h to five days",up to 100%
same,induction of phosphorylation of STAT5 proteins,"[2]; T-47D cells, 5 nM of hormone alone, Western blot FIG. 3",absent
same,hPRL-induced phosphorylation of STAT5 proteins in presence of hPRLA,[2]; equal amounts: 5 nM hPRL and 5 nM hPRLA (lane 4),partially eliminated
same,hPRL-induced phosphorylation of STAT5 proteins in presence of hPRLA,[2]; excess of hPRLA: 5 nM hPRL and 25 nM hPRLA (lane 5),undetectable
same,apoptosis of two prostate cancer cells,prostate cancer cells,underwent apoptosis
same,effect in PRLR reporter gene assay,hPRLR,antagonist effect
same,induction of apoptosis DNA fragmentation,"BT-474 cells; 250 ng G129R, 24 hours",induced apoptosis
same,"apoptosis and hPRL competition, as in T-47D",BT-474 cells; BT-474 cells,same results
